In patent US20100255578A1:

Experiments:
H296-H296-HT = test: ELISA; H296-H296-HT coated at 5 ug/mL; HRP-labeled FNH3-8, ABTS; blank subtracted
[1] = molecular target: H-296, a polypeptide comprising a heparin binding domain and a CS-1 domain of fibronectin (Homo sapiens (Human)) (UniProt P02751); test: ELISA; H-296 coated at 25 ug/mL in 0.2 M phosphate buffer pH 6.2; HRP-labeled FNH3-8, ABTS

Sequence of H296-H296-HT (chain, as listed by the source limits assumed): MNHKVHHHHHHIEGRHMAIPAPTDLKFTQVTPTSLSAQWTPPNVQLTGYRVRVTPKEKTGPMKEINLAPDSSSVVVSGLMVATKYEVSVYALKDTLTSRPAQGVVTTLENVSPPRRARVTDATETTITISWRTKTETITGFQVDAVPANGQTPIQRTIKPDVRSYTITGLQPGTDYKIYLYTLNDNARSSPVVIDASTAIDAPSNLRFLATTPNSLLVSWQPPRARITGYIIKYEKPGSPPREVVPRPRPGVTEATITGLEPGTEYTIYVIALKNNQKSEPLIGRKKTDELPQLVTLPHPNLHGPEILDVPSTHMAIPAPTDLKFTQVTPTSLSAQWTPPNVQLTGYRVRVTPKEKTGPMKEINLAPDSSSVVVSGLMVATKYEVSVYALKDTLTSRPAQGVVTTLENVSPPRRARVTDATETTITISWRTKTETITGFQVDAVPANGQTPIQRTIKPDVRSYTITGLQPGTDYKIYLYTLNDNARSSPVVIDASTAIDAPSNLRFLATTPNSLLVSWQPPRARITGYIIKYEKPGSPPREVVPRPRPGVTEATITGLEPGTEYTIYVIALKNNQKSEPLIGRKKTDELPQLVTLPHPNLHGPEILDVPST

- 405 nm (Found Value - Blank) (H296-H296-HT): 0.878
- absorbance at 405 nm [1]: 0.131
Substance: FNH3-8 antibody (manufactured by TAKARA BIO INC.) labeled with HRP
